Laboratory results reported in IntAct's records for PubMed 11473260.

B1: SAGA complex/transcription factor TFIID complex subunit TAF12 (Saccharomyces cerevisiae), Q03761 (parent)
chain: MSSNPENSGVNANNNTGTGNADAITGAQQNMVLQPRQLQEMAAKFRTLLTEARNVGETTPRGKELMFQAAKIKQVYDALTLNRRRQQAAQAYNNTSNSNSSNPASIPTENVPNSSQQQQQQQQQTRNNSNKFSNMIKQVLTPEENQEYEKLWQNFQVRHTSIKEKETYLKQNIDRLEQEINKQTDEGPKQQLQEKKIELLNDWKVLKIEYTKLFNNYQNSKKTFYVECARHNPALHKFLQESTQQQRVQQQRVQQQQQQQQQQQQQQQQQQQQQQQRQGQNQRKISSSNSTEIPSVTGPDALKSQQQQQNTITATNNPRGNVNTSQTEQSKAKVTNVNATASMLNNISSSKSAIFKQTEPAIPISENISTKTPAPVAYRSNRPTITGGSAMNASALNTPATTKLPPYEMDTQRVMSKRKLRELVKTVGIDEGDGETVIDGDVEELLLDLADDFVTNVTAFSCRLAKHRKSDNLEARDIQLHLERNWNIRIPGYSADEIRSTRKWNPSQNYNQKLQSITSDKVAAAKNNGNNVASLNTKK
partner: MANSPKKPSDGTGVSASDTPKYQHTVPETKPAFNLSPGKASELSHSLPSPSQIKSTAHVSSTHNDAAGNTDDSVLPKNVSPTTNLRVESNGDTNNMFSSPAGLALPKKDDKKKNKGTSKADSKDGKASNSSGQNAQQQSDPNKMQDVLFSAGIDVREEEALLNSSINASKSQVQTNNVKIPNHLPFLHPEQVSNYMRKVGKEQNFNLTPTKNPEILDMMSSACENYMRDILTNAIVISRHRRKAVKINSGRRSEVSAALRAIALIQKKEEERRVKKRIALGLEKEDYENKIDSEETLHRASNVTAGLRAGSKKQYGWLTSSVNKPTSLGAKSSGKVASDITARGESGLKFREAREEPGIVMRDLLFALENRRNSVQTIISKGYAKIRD

Variants of: B1
Settings: with taf4_yeast TAF4, P50105
With L449A the “effect of a mutation on the interaction” value was “disrupting interaction”. L446A was tested, and the “effect of a mutation on the interaction” value was “disrupting interaction”.
